In article PMC3969220, “N-terminus oligomerization is conserved in intracellular calcium release channels” (Biochemical Journal, 2014):
Values joined by “and” are separate entries in the source; they are usually repeats but may differ in a detail not shown here. Equal entries are not always repeated.

How the values were obtained:
[1] = target: IP3R1 N-terminal domain (residues 1–667, human IP3R1/SI− co-ordinates), c-Myc- or HA-tagged, in HEK-293 cells (human); assay: cross-linking; HEK-293 cell homogenates expressing c-Myc-tagged IP3R1 1-667 constructs, pre-treated with 10 mM DTT, without or with 1 or 10 μM IP3, incubated with glutaraldehyde for the indicated times; SDS/PAGE (6% gels), anti-c-Myc Western blot
[2] = target: IP3R1^(1–667, K493A), IP3 binding-deficient mutant, c-Myc-tagged, in HEK-293 cells (human); assay: as above
[3] = target: calpain-cleaved ~150 kDa N-terminal fragment of native RyR1 from rabbit skeletal muscle SR (rabbit (endogenous in skeletal muscle SR)); assay: cross-linking; rabbit skeletal muscle SR pre-treated with 10 mM DTT, cleaved with calpain-2, centrifuged; supernatant (liberated N-terminal fragment only) incubated with 0.0025% glutaraldehyde; SDS/PAGE (4% gels), Western blot with Ab2142
[4] = target: calpain-cleaved ~150 kDa N-terminal fragment of native RyR1 from rabbit skeletal muscle SR (rabbit (endogenous in skeletal muscle SR)); assay: cross-linking; rabbit skeletal muscle SR pre-treated with 10 mM DTT, cleaved with calpain-2, centrifuged; resuspended SR pellet incubated with 0.0025% glutaraldehyde; SDS/PAGE (4% gels), Western blot with Ab2142
[5] = target: the molecule itself; assay: not stated; unpublished work (M. Seidel and S. Zissimopoulos)
[6] = target: the molecule itself; assay: cross-linking; HEK-293 cell homogenates expressing c-Myc-tagged BT4LR1 or BT4LR3, pre-treated without or with 10 mM DTT, incubated with glutaraldehyde for the indicated times; SDS/PAGE (6% gels), anti-c-Myc Western blot

IP3R1 N-terminal domain (residues 1–667, human IP3R1/SI− co-ordinates), c-Myc- or HA-tagged, in HEK-293 cells (domain or fragment)
stoichiometry N [1]: 4

IP3R1^(1–667, K493A), IP3 binding-deficient mutant, c-Myc-tagged, in HEK-293 cells (domain or fragment)
stoichiometry N [2]: 4

calpain-cleaved ~150 kDa N-terminal fragment of native RyR1 from rabbit skeletal muscle SR (domain or fragment)
stoichiometry N [3]: 2 and 3 and 4
stoichiometry N [4]: 2 and 3 and 4

B1: truncated RyR2 N-terminal fragment (residues 1–654), of the unpublished observation (domain or fragment, human, UniProt Q92736 1-654, looked up)
chain: MADGGEGEDEIQFLRTDDEVVLQCTATIHKEQQKLCLAAEGFGNRLCFLESTSNSKNVPPDLSICTFVLEQSLSVRALQEMLANTVEKSEGQVDVEKWKFMMKTAQGGGHRTLLYGHAILLRHSYSGMYLCCLSTSRSSTDKLAFDVGLQEDTTGEACWWTIHPASKQRSEGEKVRVGDDLILVSVSSERYLHLSYGNGSLHVDAAFQQTLWSVAPISSGSEAAQGYLIGGDVLRLLHGHMDECLTVPSGEHGEEQRRTVHYEGGAVSVHARSLWRLETLRVAWSGSHIRWGQPFRLRHVTTGKYLSLMEDKNLLLMDKEKADVKSTAFTFRSSKEKLDVGVRKEVDGMGTSEIKYGDSVCYIQHVDTGLWLTYQSVDVKSVRMGSIQRKAIMHHEGHMDDGISLSRSQHEESRTARVIRSTVFLFNRFIRGLDALSKKAKASTVDLPIESVSLSLQDLIGYFHPPDEHLEHEDKQNRLRALKNRQNLFQEEGMINLVLECIDRLHVYSSAAHFADVAGREAGESWKSILNSLYELLAALIRGNRKNCAQFSGSLDWLISRLERLEASSGILEVLHCVLVESPEALNIIKEGHIKSIISLLDKHGRNHKVLDVLCSLCVCHGVAVRSNQHLICDNLLPGRDLLLQTRLVNHVSS
notes: may be the same construct as m10
stoichiometry N [5]: 4

B2: c-Myc-tagged RyR1 N-terminal fragment (residues 1–915), BT4LR1, in HEK-293 cells (domain or fragment, rabbit, UniProt P11716 1-915, looked up)
chain: MGDGGEGEDEVQFLRTDDEVVLQCSATVLKEQLKLCLAAEGFGNRLCFLEPTSNAQNVPPDLAICCFTLEQSLSVRALQEMLANTVEAGVESSQGGGHRTLLYGHAILLRHAHSRMYLSCLTTSRSMTDKLAFDVGLQEDATGEACWWTMHPASKQRSEGEKVRVGDDLILVSVSSERYLHLSTASGELQVDASFMQTLWNMNPICSCCEEGYVTGGHVLRLFHGHMDECLTISAADSDDQRRLVYYEGGAVCTHARSLWRLEPLRISWSGSHLRWGQPLRIRHVTTGRYLALTEDQGLVVVDACKAHTKATSFCFRVSKEKLDTAPKRDVEGMGPPEIKYGESLCFVQHVASGLWLTYAAPDPKALRLGVLKKKAILHQEGHMDDALFLTRCQQEESQAARMIHSTAGLYNQFIKGLDSFSGKPRGSGPPAGPALPIEAVILSLQDLIGYFEPPSEELQHEEKQSKLRSLRNRQSLFQEEGMLSLVLNCIDRLNVYTTAAHFAEYAGEEAAESWKEIVNLLYELLASLIRGNRANCALFSTNLDWVVSKLDRLEASSGILEVLYCVLIESPEVLNIIQENHIKSIISLLDKHGRNHKVLDVLCSLCVCNGVAVRSNQDLITENLLPGRELLLQTNLINYVTSIRPNIFVGRAEGSTQYGKWYFEVMVDEVVPFLTAQATHLRVGWALTEGYSPYPGGGEGWGGNGVGDDLYSYGFDGLHLWTGHVARPVTSPGQHLLAPEDVVSCCLDLSVPSISFRINGCPVQGVFEAFNLDGLFFPVVSFSAGVKVRFLLGGRHGEFKFLPPPGYAPCHEAVLPRERLRLEPIKEYRREGPRGPHLVGPSRCLSHTDFVPCPVDTVQIVLPPHLERIREKLAENIHELWALTRIEQGWTYGPVRDDNKRLHPCLVNFHSLPE
notes: ryanodine receptor 1 (RyR1), rabbit, residues 1-915; also called c-Myc–BT4LR1
stoichiometry N [6]: 4

B3: c-Myc-tagged RyR3 N-terminal fragment (residues 1–911), BT4LR3, in HEK-293 cells (domain or fragment, rabbit, UniProt Q9TS33 1-911, looked up)
chain: MAEGGEGGEDEIQFLRTEDEVVLQCIATVHKEQRKFCLAAEGLGNRLCFLEPTSEAKFIPPDLCVCNFVLEQSLSVRALQEMLANTGENGGEGAAQGGGHRTLLYGHAILLRHSFSGMYLTCLTTSRSQTDKLAFDVGLREHATGEACWWTIHPASKQRSEGEKVRIGDDLILVSVSSERYLHLSISNGNIQVDASFMQTLWNVHPTCSGSSIEEGYLLGGHVVRLFHGHDECLTIPSTDQNDSQHRRIFYEAGGAGTRARSLWRVEPLRISWSGSNIRWGQAFRLRHLTTGHYLALTEDQGLLLQDRGKADTKSTAFSFRPSKETKEKLDSSHKRDIEGMGVPEIKYGDSVCFVQHIASGLWVTYKAQDAKTSRLGPLKRKVILHQEGHMDDGLTLQRCQREESQAARIIRNTTALFSQFVSGNNRTAAPVTLPIEEVLQTLHDLIAYFQPPEEEMQHEDKQNKLRSLKNRQNLFKEEGMLALVLNCIDRLNIYNSVAHFAGIAREESGMAWKEVLSLLYKLLAALIRGNRNTCAQFSNNLDWLISKLDRLESSSGILEVLHCILIESPEALNLIAEGHIKSIISLLDKHGRNHKVLDVLCSLCLCNGVAVRANQNLICDNLLPRRNLLLQTRLINDVTSIRPNIFLGVAEGSAQYKKWYFELIIDQVDPFLTAEPTHLRVGWASSSGYAPYPGGGEGWGGNGVGDDLYSYGFDGLHLWSGRIPRAVASINQHLLKSDDVVSCCLDLGVPSISFRINGQPVQGMFENFNTDGLFFPVMSFSAGVKVRFLMGGRHGEFKFLPPSGYAPCYEALLPKEKMRLEPVKEYKRDAEGVRDLLGTTQFLSQASFIPCPIDTSQVVLPPHLEKIRDRLAENIHELWGMNKIELGWTFGKMRDDNKRQHPCLVEFSKL
notes: ryanodine receptor 3 (RyR3), rabbit, residues 1-911; also called c-Myc–BT4LR3
stoichiometry N [6]: 4
